Key:
[1] = test system: lipopolysaccharide (LPS)-induced lethal sepsis; assay: Test Example 8-1: survival in LPS-induced lethal sepsis; assay type: in vivo, BALB/c mice
Method: (§1) BALB/c mice (bodyweight of 20 g to 30 g when starting the experiments, n=10) were raised in a plastic cage under SPF and thermo-hydrostat (22±1° C., 55±5%) conditions under 12-hour light-dark cycle. Foods and water were supplied ad libitum. Then, by intraperitoneally administering LPS to the mice at a dose of 40 mg/kg, lipopolysaccharide (LPS)-induced lethal sepsis as an inflammatory disease was induced in the same manner as Test Example 7. SSV mAb dissolved in physiological saline was intraperitoneally administered totally 3 times, i.e., at 30 minutes before, 6 hours after and 12 hours after the intraperitoneal administration of LPS, in an amount of 100 μg/dose in terms of the amount of SSV mAb. The survival of the animals thereafter was tested. To the control group, IgG (SIGMA) dissolved in physiological saline was administered in place of SSV mAb in the same manner.

[2] = test system: lipopolysaccharide (LPS)-induced lethal sepsis; assay: Test Example 8-4: evaluation of congestion, edema, inflammation and bleeding; assay type: in vivo, BALB/c mice; conditions: vs control group
Method: as §1
After the end of Test Example 8, scores of congestion, edema, inflammation and bleeding were evaluated according to the method of Murakami et al. (Shock, 18 (2002), p. 236). In particular, magnified images of 24 visual fields under a microscope were subjected to observation. The degrees of deterioration of congestion, edema and inflammation in the SSV mAb-administered group and the control group were evaluated on a 5-point scale ranging from 0 to 4 (4 is the highest deterioration).

[3] = test system: lipopolysaccharide (LPS)-induced lethal sepsis; assay: Test Example 8-2: histone concentration in serum and inflammatory tissue (lung); assay type: in vivo, BALB/c mice
Method: as §1
In Test Example 8, heart-derived blood or lung tissue was obtained from control group and SSV mAb-administered group under general anesthesia according to the method conducted by Hasegawa et al. (Surg Res. 2012 May 1; 174(1):136-41.). The concentration of histone H1, histone H3 and H4 of the obtained samples were measured by using a commercially available measurement kit using ELISA.

histone H4 = histone H4 (Homo sapiens, UniProt P62805); assay: ELISA affinity for histone H4; assay type: binding; conditions: absorbance at 405 nm, 5 μg/mL antibody, compared with histone H1
Method: The Affinities between histone H1 or core histone and SSVmAb were determined by ELISA.
A 96 well microplate was coated with histone H1, H2A, H2B, H3 or H4. Each histone used was dissolved in 100 mM sodium carbonate buffer (pH 9.3). The plate was washed with PBS-tween 20 (0.05%), and blocked with 3% skim milk and 1% BSA for 1 hour. To each well, 5 μg/mL SSVmAb was added, and incubated for 1 hour. Bound SSVmAb was detected using peroxidase (HRP) conjugated anti mouse IgG1 Ab (SIGMA), and incubated for 1 hour. Bound SSVmAb was detected using the ABTS [2,2′-azino-bis(3-ethylbenzothiazoline-sulfonic acid)] substrate solution, and absorbance at 405 nm was measured using Multiskan Ascent (Thermo Fisher Scientific Inc., Waltham, Mass.).
After the end of the tests, binding assays of SSV mAb with histone H1, histone H3 and histone H4 were carried out by ELISA in the same manner as Test Example 2.

B1: SSV mAb: monoclonal antibody (IgG1) produced by Mouse-Mouse hybridoma SSV-C 93-3 (NITE BP-972), raised against peptide … (SEQ ID NO:1)-KLH conjugate (antibody, V domains shown)
VH: EIQLQQSGAELVKPGASVKISCKASGYSFTGYNMNWVKQSHGKSLEWIGNINPYYGSTSYNQKFKGKATLTVDKSSSTAYMQLNSLTSEDSAVYYCARSPYYSNYWRYFDYWGQGTTLTVSS
VL: QIVLSQSPAILSASPGEKVTMTCRASSSVSYMHWYQQKPGSSPKPWIYATSNLASGVPARFSGSGSGTSYSLTISRVEAEDAATYYCQQWSSNPWTFGGGTKLEIK
- survival rate ([1]; 24 hours after administration of LPS 40 mg/kg i.p., 100 μg/dose i.p. 3 times): 70%
- survival rate relative to that of the control group ([1]; 70 hours after administration of LPS, p<0.05): about 3.5 times
- score of congestion ([2]; 5-point scale 0 to 4): significantly lower
- score of edema ([2]; 5-point scale 0 to 4): significantly lower
- score of inflammation ([2]; 5-point scale 0 to 4): significantly lower
- score of bleeding [2]: significantly lower
- concentration of histone H3 in blood sample ([3]; FIG. 10A, vs control group): lower than the control group
- concentration of histone H3 in inflammatory tissue (lung) ([3]; FIG. 10B, vs control group): lower than the control group
- concentration of histone H1 in blood sample ([3]; serum, during the test): almost kept constant without increase
- concentration of histone H3 in blood sample ([3]; stated under the histone H4 results, FIG. 11A, vs control group): tend to be lower than the control group
- concentration of histone H3 in inflammatory tissue (lung) ([3]; stated under the histone H4 results, FIG. 11B, vs control group): tend to be lower than the control group
- concentration of histone H1 in inflammatory tissue (lung) ([3]; vs control group): more significantly decreased than that from the control group
- affinity for histone H4 (ELISA) (histone H4): binding capacity
- affinity for histone H4 (ELISA) (histone H4; listed as SSVmAb): higher than the affinity for histone H1

Source: patent US20170096478A1, “THERAPEUTIC AGENT FOR INFLAMMATORY DISEASE” (Josai University Corporation, priority 2012, published 2017)
